From patent publication US20260083845A1 (CELLICURE, published 2026) come the findings set out here.

The chains are these.
T1: NKG2D (natural receptor on NK cells) (human, UniProt P26718 1-216)
T1 construct: whole, on cells; also called NKG2D receptors; natural NKG2D
T1 sequence (looked up): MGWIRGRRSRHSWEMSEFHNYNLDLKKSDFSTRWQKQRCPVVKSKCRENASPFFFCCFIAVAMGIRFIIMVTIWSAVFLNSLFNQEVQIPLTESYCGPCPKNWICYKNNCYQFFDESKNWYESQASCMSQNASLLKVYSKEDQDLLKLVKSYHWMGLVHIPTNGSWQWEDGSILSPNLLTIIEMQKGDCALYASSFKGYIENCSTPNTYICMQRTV

T2: NKG2D-GFP (human, UniProt P26718 1-216)
T2 construct: whole, on cells; NKG2D-GFP expressed in NK cells for the PLA between GFP and DAP10; also called natural NKG2D; not shown: GFP
T2 sequence (looked up): T1 sequence (looked up)

B1: DNAX-Activation Protein 10 (DAP10) (other, human, UniProt Q9UBK5 19-93, looked up)
chain: QTTPGERSSLPAFYPGTSGSCSGCGSLSLPLLAGLVAADAVASLLIVGAVFLCARPRRSPAQEDGKVYINMPGRG
notes: whole, on cells; Endogenous DAP10 of the NK cells, detected with anti-DAP10 (mouse IgG) in the PLA
B2: CAR2-GFP fusion (NKG2D CAR: anti-CD19 ScFv-CD8 hinge-NKG2D TM-2B4 ICD-CD3zeta, fused to GFP) (receptor)
chain: EVKLQQSGAELVRPGSSVKISCKASGYAFSSYWMNWVKQRPGQGLEWIGQIYPGDGDTNYNGKFKGQATLTADKSSSTAYMQLSGLTSEDSAVYFCARKTISSVVDFYFDYWGQGTTVTVSSGGGGSGGGGSGGGGSDIELTQSPKFMSTSVGDRVSVTCKASQNVGTNVAWYQQKPGQSPKPLIYSATYRNSGVPDRFTGSGSGTDFTLTITNVQSKDLADYFCQQYNRYPYTSGGGTKLEIKPAKPTTTPAPRPPTPAPTIASQPLSLRPEACRPAAGGAVHTRGLDFACDPFFFCCFIAVAMGIRFIIMVTWRRKRKEKQSETSPKEFLTIYEDVKDLKTRRNHEQEQTFPGGGSTIYSMIQSQSSAPTSQEPAYTLYSLIQPSRKSGSRKRNHSPSFNSTIYEVIGKSQPKAQNPARLSRKELENFDVYSSFGLLDPKLCYLLDGILFIYGVILTALFLRVKFSRSADAPAYQQGQNQLYNELNLGRREEYDVLDKRRGRDPEMGGKPRRKNPQEGLYNELQKDKMAEAYSEIGMKGERRRGKGHDGLYQGLSTATKDTYDALHMQALPPR
notes: Expressed in NK cells for the Duolink PLA; not shown: GFP

Assay [1] concerns the target T1, NKG2D (natural receptor on NK cells). The experiment in a line: Duolink proximity ligation assay NKG2D+DAP10, counted PLA signals, CAR-NK cells stimulated by 293T-MICA.
Assay [2] addresses T2, NKG2D-GFP. Description: Duolink proximity ligation assay (anti-GFP + anti-DAP10) in NKG2D-GFP expressing NK cells with CAR0 or CAR2, stimulated by 293T-CD19-MICA, confocal microscopy. As for the experimental part:
(§1) PLA assays were performed using the in situ Duolink PLA red kit (Sigma-Aldrich) according to the manufacturer's instructions. The CAR0, an empty vector with GFP expression, or CAR2-GFP fusion expressing NK cells were attached to the poly-l-lysine glass, target cells were then added and incubated at 37° C. for 30 minutes. Unattached cells were removed by washing with PBS. slides were fixed and stained with anti-GFP (Rabbit IgG) and anti-DAP10 (Mouse IgG), washed, and stained with anti-rabbit and anti-mouse PLA probes, followed by probe DNA ligation, amplification, Fluorescent staining were then performed and observed using confocal microscopy,
(§2) NKG2D receptor has no intracellular signaling domain, it recruits adaptor DNAX-Activation Protein 10 (DAP10) to transfer signals via YxxM motif (Eagle et al. (2009) Beyond Stressed Self: Evidence for NKG2D Ligand Expression on Healthy Cells. Curr Immunol Rev. 5(1):22-34). […] DAP10 was recruited to the CAR2 effectively stimulating by CD19.

Assay [3] has as its target B1. Description: Duolink proximity ligation assay (anti-GFP + anti-DAP10) in NK cells stimulated by 293T-CD19-MICA, confocal microscopy. As for the experimental part: as §1, §2

As to B1, the binding result in assay [1] and in assay [2] was “binds” each time.
In the case of B2, the binding result in assay [3] was “binds”.
